Conditions: Ajellomyces capsulatus (strain G186AR / H82 / ATCC MYA-2454 / RMSCC 2432); pH 6.5; 25 °C; Urea; CD; KH2PO4 0.01 M; KCl 0.1 M; reversible: Yes; whole UniProt chain shown

B1: Calcium-binding protein wild type, O42720 (protein)
chain: MLFSKVIAPAFILLGAASAAPGGLAPENASKRDQPSVGDAFDKYNEAVRVFTQLSSAANCDWAACLSSLSASSAACIAAVGELGLDVPLDLACAATATSSATEACKGCLW
In the case of B1, the denaturant m value is reported as 0.84 kcal/mol/M, the “denaturant midpoint (higher = more stable)” value is reported as 3.4 M and the unfolding free energy is reported as 2.9 kcal/mol.

From FireProtDB (doi:10.1021/bi701495v)
